Reference: the DeepSol protein solubility set

experiment: soluble on expression in E. coli; label from the status in PepcDB or PDB records

Row | Sequence | soluble on expression in E. coli
1 | GMPTLEMPVAAVLDSTVGSSEALPDFTSDRYKDAYSRINAIVIEGEQEAHDNYIAIGTLLPDHVEELKRLAKMEMRHKKGFTACGKNLGVEADMDFAREFFAPLRDNFQTALGQGKTPTCLLIQALLIEAFAISAYHTYIPVSDPFARKITEGVVKDEYTHLNYGEAWLKANLESCREELLEANRENLPLIRRMLDQVAGDAAVLQMDKEDLIEDFLIAYQESLTEIGFNTREITRMAAAALVS | soluble
2 | MNALVAHNSEAWDKKVETGNEWTVAVEQQVIEQAKKGNWDIRVTPMKDVPKDWFPPIKGLKVLCLASGGGQQGPVLAAAGADVTVLDNSEKQLNQDRMIAERDGLTIHTVKGSMDDLSVFNDESFDVIVHPVANVFVENVLPVWKEAYRVLKRNGILISGFVNPVVFLFDTVLEQQGVLKVKHSIPYADPEDLPKHKVKELIENNEALEFGHSLEDQIKGQIDAGFIVTGFYEDKGGFVLDQYIHTYSATRSVKVLEHHHHHH | soluble
3 | MSSGDMTSEYKDKQGGGAGQPLTKSENNDGKKTLTNGMSRVHRVLTEDEIASGRSTRWTELEIHGRVKNLSPSLWQLTHLSALFLNNNGLTRLPPEIAQLTNLTMLDISNNKLRSLPTELGDMISLCHLYLNNNQLRVLPYELGKLFRIQTLGLQGNPLSPEISKIYHETNGAQKILQFLLDHLTINTHPPPERNWVMIRHADPERPIATFTVLCYNVLCDKYATVNQYSYCPSWALNWEYRKGLIIKEIRTYEADVITLQEVETEQFRTLFQPELKQLGYAGIFEAKSRAKTMGEEERKYVDGCAIFWKVDKFDMDKQYLFEFSSVAMKKASTSENMLNRVMPRDNIGLCAVLKIKESVYANKFLGRMQIPMNDNVVGNPLVVATAHIHWDPEFCDVKLVQSMMLTHEVSRVLEEVSKKYQITQQQVPVLICGDFNSLPDSGVFEYLSKGQITRRHMDLKSFRDDSCLEKFTNSTDKNVISHPLRLDSACDINSIPFTNYTLDFKGMIDYIFATPQSLARLGILGPFDPQWVQSNKILGFPHPHVASDHIPIMAQYAIIPTTHQRQQPLQQAGPAAGVIGGGFPSTPSGAQPFLRC | not soluble
4 | MTQLNFEENLLTKVAWYYYKDQLTQQEIASLLHISRNKVVRLLDKARSEGIVTFHVKGTGLHCLSIERDLMKKFHLKDAFIIPTPVNNYHASLGKAAAQYLETHLQQGDLLGIGWGETISKMLENIHFESSINLSIVTLTGGVNHYLPRKQNYLHYMQGELHIIPTPFLASTTEMAQSILSEPSVKDMLQVASLAHTAVVGIGGLSQDATIVKEEKLTLREMTYIRSQNGAGDILGQFYNTNGDLLELSHHNRLIGTPLSILRNMKHVVGVAGGTEKIDAICGALKGKFIHSLITDEETALSLLRKDGDC | not soluble
5 | MAHHHHHHMSSVSAAPQLSPKVIPGCSNTHSNSGLPTILSDLGTFAYQSACYGPQQLLACSSAVTNAGEVIFVYDMNSMLLTQSLSGHKAAVTALLWRPPPASYLQTGLFLWSGDARGALMYWDVVEGVALTSIQTPCHAAVQSLTLLTDEHLLVVTQEGAGYVFNSHLVDNTPLPPGRLLLETKQSTLLGNISRPSLVACSRLNDQHCCAVVLGDRLRILTAIQLDSGATAPVAKDLIYDSCDGAPTVVDVFFSDAQEEVLYFATRNTVGCYDWKLRLMLNESLLWLPDEVEFRRIFRSCSSGAAARTAASRSQESTASSSGDAAAAQVPLMYSFGSDQRLVAWHVTRHDRFTAVLTDVRGARINAKLCVNVVQSELDSSMFAVLFEDGSIVHWQYSPLARRWKLLDCWLAPVVRPVTFCPVGAHHCCVALESGHLALMDITHSMAVRRLTWSTLAERRLCCCAGTSGATLSGSCRTASNSTATTTKSR | not soluble
6 | MENAPLLFQLPDDDTLYQALLARDPAYEGFAFVGVKSTGVFCRLTCAARKPKRENTVFFGSIKGCVEAGFRACLRCRPLERAGVQEPWVQTLLEQLGRDPERRWYEDDLVAQGLDPSTVRRAFKRYFGVTFLEMARLRRMGQGMQQLASGEPVIEAQISAGFDSDSGFRHAFSRLAGQPPSNLRGRELLKVDWLQTPIGVMLAVADAQVLHLLEFFDRPALANELQNLQKSSGSSIGFGRFAPIDQIEAELQRYFAGEAVHFATPLAMSASPFTRTVWQALRAIPLGTTCSYAEVARQVGSPSAVRAVARANAANQISIVIACHRVIGADGSLTGYGGGLEHHHHHH | not soluble
7 | MTGSDISHILKEGELEKRSDNLLQFWKRKTCVLTTDSLNIYTDQQKKNKSKELKLQSIKKVDCVEHTGKFVYFTIVTTDNKEIDFRCSDEKNCWNAVIAIALVNFQNRKAIQGFKTQKESENTSLGQQERCMARAP | not soluble
